Laboratory results taken from US7622265B2, “Methods and compositions for modulating prostasin” (Genentech, Inc., priority 2005, dated 2009).
Where no end group is shown, it is not given here.

How the values were obtained:
[1] = molecular target: T1, prostasin (Homo sapiens, UniProt Q16651); assay: Enzyme inhibition assay (amidolytic activity of prostasin towards S2765); type: biochemical; set-up: made in house; host or cells: CHO cells (transient transfection, pRK5E); purified from conditioned medium on aprotinin-agarose; settings: for inhibition of prostasin enzymatic activity (in words): substrate S2765
Method: The increase in absorbance at 405 nm was monitored on a kinetic microplate reader (Molecular Devices, Sunnyvale, Calif.). The linear rates of the increase in absorbance were expressed as percentage activities (100%×vi/v0). […] At least three independent experiments were performed for each inhibitor.
Target sequence in this assay (Q16651 45-322 limits assumed, other chains not shown): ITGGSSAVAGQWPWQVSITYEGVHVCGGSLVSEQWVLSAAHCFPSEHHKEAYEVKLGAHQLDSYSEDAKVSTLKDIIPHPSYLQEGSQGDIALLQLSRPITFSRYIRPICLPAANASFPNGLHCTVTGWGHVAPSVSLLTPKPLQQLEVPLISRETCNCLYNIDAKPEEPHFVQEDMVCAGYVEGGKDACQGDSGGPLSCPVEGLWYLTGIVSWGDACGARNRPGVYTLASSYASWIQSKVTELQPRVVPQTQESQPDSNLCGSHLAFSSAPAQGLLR

[2] = molecular target: T1, prostasin; assay: Prostasin binding assay (complex formation, immunoblotting); set-up: made in house; host or cells: CHO cells (transient transfection, pRK5E); purified from conditioned medium on aprotinin-agarose; settings: 20 nM sHAI-1B, 37° C., 0.5 or 2 h, immunoblot with anti-HAI-1B polyclonal antibody
Method: Prostasin binding assay—Purified prostasin and sHAI-1B were diluted in 20 mM Tris-Cl, pH 9.0 containing 0.01% Triton X-100 (TT buffer) to the final concentration as indicated. The mixture was incubated at 37° C. for 0.5 h or 2 h and the reaction was stopped by addition of SDS sample buffer with DTT. 30 μl of each sample was analyzed by immunoblotting.
Prostasin and sHAI-1B form 1:1 complexes—Soluble prostasin was purified from conditioned medium of CHO cells transiently transfected with full-length prostasin. […] Prostasin was incubated with sHAI-1B comprising the entire extracellular domain of HAI-1B (Kirchhofer, Peek et al. 2003) at different molar ratios (FIG.2A). Increasing concentrations of prostasin shifted the sHAI-1B band (55 kDa) to the higher molecular mass species of 85 kDa, indicating the formation of prostasin:sHAI-1B complexes. At a 10-fold molar excess of prostasin, almost all sHAI-1B was bound to prostasin. Immunoblotting with anti-prostasin antibody confirmed that the 85 kDa band comprised complexes of sHAI-1B and prostasin (data not shown).
Target sequence in this assay (Q16651 45-322 limits assumed, other chains not shown): as above

[3] = molecular target: T1, prostasin; settings: purified enzyme system; cited from earlier work
Target sequence in this assay (Q16651 33-343, species assumed): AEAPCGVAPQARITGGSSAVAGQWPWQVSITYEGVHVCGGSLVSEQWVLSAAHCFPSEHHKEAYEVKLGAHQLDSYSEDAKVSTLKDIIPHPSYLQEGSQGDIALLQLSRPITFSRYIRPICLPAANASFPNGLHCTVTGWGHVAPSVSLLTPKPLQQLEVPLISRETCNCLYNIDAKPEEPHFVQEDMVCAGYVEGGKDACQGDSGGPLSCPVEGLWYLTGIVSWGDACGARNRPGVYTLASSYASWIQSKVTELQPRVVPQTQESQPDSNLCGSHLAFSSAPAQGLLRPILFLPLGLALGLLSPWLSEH

Molecule	inhibition of prostasin enzymatic activity (in words) ([1]; prostasin 3 nM)	IC50 ([1]; prostasin 3 nM, substrate S2765 0.05 mM, TT buffer, 20 min preincubation at room temperature, averages ± S.D. of at least three independent experiments, read-out: IC50 (nM), effects of inhibitors on the activity of prostasin) [nM]	complex formation with prostasin [2]	fold less potent than wildtype sHAI-1B ([1]; IC50 compared with wildtype sHAI-1B)	inhibition of prostasin activity (in words) [3]
APPI: Alzheimer's amyloid β protein precursor inhibitor, a Kunitz domain (VREVCSEQAETGPCRAMISRWYFDVTEGKCAPFFYGGCGGNRNNFDTEEYCMAVCGSA; ends and bridges not checked; cysteine pairing not given here) [reference compound]	did not inhibit prostasin	> 1000			
sHAI-1B K401A: KD2 mutant of sHAI-1B, P1 residue Lys401 (in KD2) changed to Ala (protein) GPPPAPPGLPAGADCLNSFTAGVPGFVLDTNASVSNGATFLESPTVRRGWDCVRACCTTQNCNLALVELQPDRGEDAIAACFLINCLYEQNFVCKFAPREGFINYLTREVYRSYRQLRTQGFGGSGIPKAWAGIDLKVQPQEPLVLKDVENTDWRLLRGDTDVRVERKDPNQVELWGLKEGTYLFQLTVTSSDHPEDTANVTVTVLSTKQTEDYCLASNKVGRCRGSFPRWYYDPTEQICKSFVYGGCLGNKNNYLREEECILACRGVQGGPLRGSSGAQATFPQGPSMERRHPVCSGTCQPTQFRCSNGCCIDSFLECDDTPNCPDASDEAACEKYTSGFDELQRIHFPSDKGHCVDLPDTGLCAESIPRWYYNPFSEHCARFTYGGCYGNKNNFEEEQQCLESCRGISKKDVFGLRREIPIPSTGSVE	inhibitory potency comparable to the wildtype		still formed an 85 kDa complex with prostasin		
sHAI-1B R260A: KD1 mutant of sHAI-1B, P1 residue Arg260 (in KD1) changed to Ala (protein) GPPPAPPGLPAGADCLNSFTAGVPGFVLDTNASVSNGATFLESPTVRRGWDCVRACCTTQNCNLALVELQPDRGEDAIAACFLINCLYEQNFVCKFAPREGFINYLTREVYRSYRQLRTQGFGGSGIPKAWAGIDLKVQPQEPLVLKDVENTDWRLLRGDTDVRVERKDPNQVELWGLKEGTYLFQLTVTSSDHPEDTANVTVTVLSTKQTEDYCLASNKVGRCAGSFPRWYYDPTEQICKSFVYGGCLGNKNNYLREEECILACRGVQGGPLRGSSGAQATFPQGPSMERRHPVCSGTCQPTQFRCSNGCCIDSFLECDDTPNCPDASDEAACEKYTSGFDELQRIHFPSDKGHCVDLPDTGLCKESIPRWYYNPFSEHCARFTYGGCYGNKNNFEEEQQCLESCRGISKKDVFGLRREIPIPSTGSVE			did not	at least 18 fold	
HAI-2: hepatocyte growth factor activator inhibitor-2, a bi-Kunitz type serine protease inhibitor (protein, UniProt O43291 28-252, looked up) Kunitz-type protease …: ADRERSIHDFCLVSKVVGRCRASMPRWWYNVTDGSCQLFVYGGCDGNSNNYLTKEECLKKCATVTENATGDLATSRNAADSSVPSAPRRQDSEDHSSDMFNYEEYCTANAVTGPCRASFPRWYFDVERNSCNNFIYGGCRGNKNSYRSEEACMLRCFRQQENPPLPLGSKVVVLAGLFVMVLILFLGASMVYLIRVARRNQERALRTVWSSGDDKEQLVKNTYVL					potently inhibit prostasin activity
